In article PMC6978714, “Protective Allele for Multiple Sclerosis HLA-DRB1*01:01 Provides Kinetic Discrimination of Myelin and Exogenous Antigenic Peptides” (Frontiers in Immunology, 2020):
Blank lines part the entries; values can stand above or below the substance they belong to. No end group written: not given here.

Assays:
HLA-DRB1*01:01 [1] = target: T1, HLA-DRB1*01:01 (Homo sapiens, UniProt P01903+P01911, A100R/D57E/F55L/F60I/F76Y/I96L/L162R/M171V/P40L/Q125E/R42F/V115G/Y59C); test: Real-time ELISA kinetics of peptide loading (CLIP exchange) with or without HLA-DM; assay type: binding; conditions: thioredoxin-fused chimeric peptides with C-terminal part of MBP151-164 or MBP88-100, 150 nM, HLA-DR 150 nM, with or without HLA-DM 150 nM
HLA-DRB1*01:01 [2] = target: T1, HLA-DRB1*01:01; test: Kinetic competition assay with Trx-[HA]bio in presence of HLA-DM; assay type: binding; conditions: HLA-DRB1*01:01 150 nM, HLA-DM 150 nM, Trx-[HA]bio 150 nM, competitor 0-1 μM, 0-8 h
Protocol: (§1) In a competition assay, kinetic experiments were carried out as described above. Kinetics were measured in the presence of increasing concentrations (0, 30, 100, 300, and 1,000 nM) of thioredoxin-fused HA, pp65, MBP, or chimeric peptides at timepoints 8, 6, 4, 2, and 0 h. Thioredoxin without any peptide was used as a control. ELISA was performed as done previously. All experiments were carried out in triplicates.

HLA-DRB1*01:01 [3] = target: T1, HLA-DRB1*01:01; test: Peptide binding ELISA (L243 capture, streptavidin-peroxidase); conditions: thioredoxin-fused biotinylated MBP fragments 750 nM, HLA-DR 150 nM, overnight, 37°C
HLA-DR4 = conditions: direct binding to purified molecules; cited from earlier work
Source text: (§2) MS therapeutic glatiramer acetate (GA) or Copaxone is a 40–100 amino acids polypeptide of a random sequence composed from alanine, lysine, glutamate, and tyrosine at a molar ratio of 4.5:3.6:1.5:1, respectively, that with high affinity binds directly to the purified HLA-DR1, -DR2, and -DR4 molecules ([45]). Combinatorial chemistry, which lays in the basis of GA, may result in assembling of multiple HLA class II epitopes, that at least in part may be not simply thermodynamically but rather kinetically preferable. Concluding our data provide novel vector of optimization of altered peptide ligand ...

HLA-DR1 = conditions: direct binding to purified molecules; cited from earlier work
Source text: as §2

HLA-DR2 = conditions: direct binding to purified molecules; cited from earlier work
Source text: as §2

HLA-DRB1*15:01 [4] = target: T2, HLA-DRB1*15:01 (Homo sapiens, UniProt P01903+P01911); test: 18 h competition assay with Trx-[pp65]bio; assay type: binding; conditions: HLA-DRB1*15:01 150 nM, Trx-[pp65]bio 150 nM, competitor 7.8 nM-1 μM
Protocol: In a competition assay, biotinylated thioredoxin-fused HA and pp65 peptides (150 nM) were incubated with HLA-DR in the presence of HA, pp65, MBP or chimeric peptides (1,000, 500, 250, 125, 62.5, 31.2, 15.6, and 7.8 nM) for 18 h. Whole procedure was the same as described above.

HLA-DRB1*15:01 [5] = target: T2, HLA-DRB1*15:01; test: Real-time ELISA kinetics of peptide loading (CLIP exchange) with or without HLA-DM; assay type: binding; conditions: thioredoxin-fused peptides 150 nM, HLA-DR 150 nM, HLA-DM 150 nM
Protocol: A real-time ELISA assay was used to assess kinetics of peptide exchange on HLA-DR, catalyzed by HLA-DM. The linker connecting the CLIP peptide to the N-terminus of the HLA-DR β chain was cut with thrombin (1 h, 20 U/mg, at room temperature). DR-CLIP complexes (150 nM) were incubated with or without HLA-DM (150 nM, which was estimated as minimal concentration for maximal rate, see Figure S1) in the presence of biotinylated either synthetic or thioredoxin-fused HA, pp65, MBP, and chimeric peptides (150 nM, which was experimentally estimated as minimal concentration required for reliable detection), for 7, 5, 3, 1, and 0 h. Each time point was mixed separately starting from the end of incubation time (7 h) every 2 h, afterwards all time points were loaded into the plate.

HLA-DRB1*15:01 [6] = target: T2, HLA-DRB1*15:01; test: Kinetic competition assay with Trx-[pp65]bio in presence of HLA-DM; assay type: binding; conditions: HLA-DRB1*15:01 150 nM, HLA-DM 150 nM, Trx-[pp65]bio 150 nM, competitor 0-1 μM
Protocol: as §1

HLA-DRB1*15:01 [7] = target: T2, HLA-DRB1*15:01; test: Peptide binding ELISA (L243 capture, streptavidin-peroxidase); conditions: thioredoxin-fused biotinylated MBP fragments 750 nM, HLA-DR 150 nM, overnight, 37°C
Protocol: DR/peptide complexes were then captured on the ELISA plate with immobilized L243 mAb (5 μg/ml in PBS) and blocked with 1% milk in PBS. HLA-DR-bound biotinylated peptide was quantitated with streptavidin-peroxidase (50 μl in PBST), using 3,3′,5,5′-tetramethylbenzidine (50 μl) as a substrate and stopping with 10% phosphoric acid (50 μl). ELISA was performed using standard protocol (https://www.abcam.com/protocols/sandwich-elisa-protocol).

Capable of efficiently binding HLA-DRB1*01:01 (kinetic assay) (HLA-DRB1*01:01 [1]): none
Substance: Trx-[MBP88−100]: thioredoxin-fused MBP88−100 ({thioredoxin-(SGGGG)3S}-VHFFKNIVTPRTP; also: biotin (EZ-Link Sulfo-NHS-LC-biotin), places not given here, His-tag, end not given here)

Capable of efficiently binding HLA-DRB1*01:01 (kinetic assay) (HLA-DRB1*01:01 [1]): none | Concentration up to which the peptide failed to compete with Trx-[HA]bio (HLA-DRB1*01:01 [2]): > 1 µM
Substance: Trx-[MBP151−164]: thioredoxin-fused MBP151−164 ({thioredoxin-(SGGGG)3S}-LSKIFKLGGRDSRS; also: biotin (EZ-Link Sulfo-NHS-LC-biotin), places not given here, His-tag, end not given here)

Binding of MBP epitope library to HLA-DRB1*01:01 (HLA-DRB1*01:01 [3]): less efficiently bound
Substance: MBP65−92: thioredoxin-fused MBP fragment of the MBP epitope library ({thioredoxin-(SGGGG)3S}-ARTAHYGSLPQKSHGRTQDENPVVHFFK; also: biotin (EZ-Link Sulfo-NHS-LC-biotin), places not given here, His-tag, end not given here)

Substance: glatiramer acetate
Binding to purified HLA-DR4 (HLA-DR4): high affinity | Binding to purified HLA-DR1 (HLA-DR1): high affinity | Binding to purified HLA-DR2 (HLA-DR2): high affinity

Thermodynamic inhibition capacity in comparison with Trx-[pp65] and Trx-[pp65-MBP91-97] (HLA-DRB1*15:01 [4]): up to half of order of magnitude greater | Rate of loading on HLA-DRB1*15:01 with or without HLA-DM (HLA-DRB1*15:01 [5]): similarly high rate | Concentration from which binding of Trx-[pp65]bio was decreased (HLA-DRB1*15:01 [6]): 100 nM
Substance: Trx-[MBP85−97]: thioredoxin-fused MBP85−97 (NPVVHFFKNIVTP; not fully specified (N-terminus); also: fused to thioredoxin via (SGGGG)3S linker at N-terminus, His-tag, position not given here, biotinylated with Sulfo-NHS-LC-biotin, site not given here)

Binding of MBP epitope library to HLA-DRB1*15:01 (HLA-DRB1*15:01 [7]): significantly diminished efficiency | Binding of MBP epitope library to HLA-DRB1*01:01 (HLA-DRB1*01:01 [3]): less efficiently bound
Substance: MBP130−156: thioredoxin-fused MBP fragment of the MBP epitope library (GRASDYKSAHKGFKGVDAQGTLSKIFK; not fully specified (N-terminus); also: fused to thioredoxin via (SGGGG)3S linker at N-terminus, His-tag, position not given here, biotinylated with Sulfo-NHS-LC-biotin, site not given here)

Binding of MBP epitope library to HLA-DRB1*15:01 (HLA-DRB1*15:01 [7]): significantly diminished efficiency
Substance: MBP25−54: thioredoxin-fused MBP fragment of the MBP epitope library (ARHGFLPRHRDTGILDSIGRFFGGDRGAPK; not fully specified (N-terminus); also: fused to thioredoxin via (SGGGG)3S linker at N-terminus, His-tag, position not given here, biotinylated with Sulfo-NHS-LC-biotin, site not given here)
